Data: article PMC13328618, “Heritable immunization of mice against Lyme disease enables ecological disease prevention” (Nature Communications, 2026)

What was measured:
[1] = target: recombinant outer surface protein A (rOspA) of Borrelia burgdorferi (Borrelia burgdorferi) (UniProt P0CL66)
[2] = target: T1, biotinylated OspA protein (Borrelia burgdorferi, UniProt P0CL66, biotin (site not stated)); experiment: BLI; Octet Red96; biotinylated OspA immobilised on streptavidin biosensors; antibody 3.7-300 nM, 180 s association, 600 s dissociation in PBST with 0.1% bovine serum albumin; global fitting; conditions: both partners purified
T1 construct: outer surface protein A (OspA), Borrelia burgdorferi; biotinylated for capture on streptavidin biosensors; May be the GenScript rOspA after biotinylation; also called biotinylated OspA proteins

[3] = target: T2, recombinant outer surface protein A (rOspA) of Borrelia burgdorferi (Borrelia burgdorferi, UniProt P0CL66); experiment: ELISA; plates coated with 5 µg/mL rOspA; supernatants of transfected Lenti-X 293T cells 72 h after transfection; detection with mouse IgG2b ELISA kit; conditions: one partner purified
T2 construct: outer surface protein A (OspA), Borrelia burgdorferi; recombinant; source: produced by GenScript

[4] = target: T2, recombinant outer surface protein A …; experiment: ELISA; plates coated with rOspA at 5 µg/mL; mouse serum applied; detection with IgG ELISA detection kit; purified LA-2 IgG2a as standard; conditions: one partner purified

T2 sequence (P0CL66 17-273): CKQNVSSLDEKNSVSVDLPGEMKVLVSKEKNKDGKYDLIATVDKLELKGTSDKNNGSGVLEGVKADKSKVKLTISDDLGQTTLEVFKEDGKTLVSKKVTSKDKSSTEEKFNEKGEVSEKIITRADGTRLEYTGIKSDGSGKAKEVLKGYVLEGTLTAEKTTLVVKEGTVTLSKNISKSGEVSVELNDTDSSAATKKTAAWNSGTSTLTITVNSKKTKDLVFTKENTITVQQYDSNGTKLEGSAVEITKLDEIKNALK
T1 sequence (P0CL66 17-273): as above
Chain of recombinant outer surface protein A (rOspA) of Borrelia burgdorferi (Borrelia burgdorferi) (P0CL66 17-273): as above

**Q.** With “LA-2 scFv-albumin fusion protein expressed in Rosa26-targeted mice” as the molecule, how does the xenodiagnosis: engineered (heterozygous) mice free of infection, by spirochetes in larval ticks fed 21 days after challenge with 10 B. burgdorferi-infected nymphs [1] read?
**A.** 80%

B1: full-length LA-2 IgG2a (antibody, V domains shown)
VH: QIQLVQSGPELKKPGETVKISCKASGYTFTDYSMYWVKQAPGKGLKRMGWINTETGEPTYADDFKGRFALSLDTSASTAYLHISNLKNEDTATYFCARGLDSWGQGTSVTVSS
VL: DIQMTQSPSSLSATLGGKVTITCKASQDINKYIAWYQHKPGKGPRLLIHYTSTLQPGNPSRFSGSGSGRDYSFSISNLEAEDIAIYYCLQYDNLQRTFGGGTKVEIK
notes: LA-2 heavy-chain variable region; mouse IgG2a heavy-chain constant region; LA-2 light-chain variable region; light-chain constant region; IgG2a; plasmid constructed by GenScript; source: Expi293F, transfected, purified (Protein A-Sepharose 4B)
**Q.** Does B1 bind [2]?
**A.** binds

B2: LA-2 scFv-Fc with Vh-(G4S)3-Vl linker (Fc fusion)
VH: B1 VH
VL: B1 VL
notes: LA-2 heavy-chain variable region, as the VH of m3; flexible (G4S)3 linker, printed as (G4S)3; LA-2 light-chain variable region, as the VL of m3; Cloned into a modified pcDNA3.4 vector; also called scFv with a Vh-(G4S)3-Vl linker; source: Expi293F, transfected, purified (Protein A-Sepharose 4B)
**Q.** Does B2 bind [2]?
**A.** binds

B3: LA-2 scFv-Fc with the top-performing linker … (Fc fusion)
VH: B1 VH
VL: B1 VL
notes: LA-2 heavy-chain variable region, as the VH of m3; linker between the heavy and light variable regions; LA-2 light-chain variable region, as the VL of m3; source: Lenti-X 293T, transfected (PEI), in supernatant
**Q.** Does B3 bind [3]?
**A.** binds

B4: full-length LA-2 monoclonal antibody expressed in liver-specific knock-in mice (antibody, V domains shown)
VH: B1 VH
VL: B1 VL
notes: LA-2 heavy-chain variable region, as the VH of m3; mouse IgG2a heavy-chain constant region; LA-2 light-chain variable region, as the VL of m3; light-chain constant region; Heavy and light chains are made from one transcript with a T2A element between them; residues of T2A may remain on the chains; also called LA-2 antibodies; source: transgenic Mus musculus (knock-in proximal to the albumin …)
**Q.** Does B4 bind [4]?
**A.** binds
